US20150306234
Positions count from the first letter of the chain named.

Tests used:
[1] = tested on: T1, B domain deleted FVIII (BDD FVIII), unmutated
T1 sequence: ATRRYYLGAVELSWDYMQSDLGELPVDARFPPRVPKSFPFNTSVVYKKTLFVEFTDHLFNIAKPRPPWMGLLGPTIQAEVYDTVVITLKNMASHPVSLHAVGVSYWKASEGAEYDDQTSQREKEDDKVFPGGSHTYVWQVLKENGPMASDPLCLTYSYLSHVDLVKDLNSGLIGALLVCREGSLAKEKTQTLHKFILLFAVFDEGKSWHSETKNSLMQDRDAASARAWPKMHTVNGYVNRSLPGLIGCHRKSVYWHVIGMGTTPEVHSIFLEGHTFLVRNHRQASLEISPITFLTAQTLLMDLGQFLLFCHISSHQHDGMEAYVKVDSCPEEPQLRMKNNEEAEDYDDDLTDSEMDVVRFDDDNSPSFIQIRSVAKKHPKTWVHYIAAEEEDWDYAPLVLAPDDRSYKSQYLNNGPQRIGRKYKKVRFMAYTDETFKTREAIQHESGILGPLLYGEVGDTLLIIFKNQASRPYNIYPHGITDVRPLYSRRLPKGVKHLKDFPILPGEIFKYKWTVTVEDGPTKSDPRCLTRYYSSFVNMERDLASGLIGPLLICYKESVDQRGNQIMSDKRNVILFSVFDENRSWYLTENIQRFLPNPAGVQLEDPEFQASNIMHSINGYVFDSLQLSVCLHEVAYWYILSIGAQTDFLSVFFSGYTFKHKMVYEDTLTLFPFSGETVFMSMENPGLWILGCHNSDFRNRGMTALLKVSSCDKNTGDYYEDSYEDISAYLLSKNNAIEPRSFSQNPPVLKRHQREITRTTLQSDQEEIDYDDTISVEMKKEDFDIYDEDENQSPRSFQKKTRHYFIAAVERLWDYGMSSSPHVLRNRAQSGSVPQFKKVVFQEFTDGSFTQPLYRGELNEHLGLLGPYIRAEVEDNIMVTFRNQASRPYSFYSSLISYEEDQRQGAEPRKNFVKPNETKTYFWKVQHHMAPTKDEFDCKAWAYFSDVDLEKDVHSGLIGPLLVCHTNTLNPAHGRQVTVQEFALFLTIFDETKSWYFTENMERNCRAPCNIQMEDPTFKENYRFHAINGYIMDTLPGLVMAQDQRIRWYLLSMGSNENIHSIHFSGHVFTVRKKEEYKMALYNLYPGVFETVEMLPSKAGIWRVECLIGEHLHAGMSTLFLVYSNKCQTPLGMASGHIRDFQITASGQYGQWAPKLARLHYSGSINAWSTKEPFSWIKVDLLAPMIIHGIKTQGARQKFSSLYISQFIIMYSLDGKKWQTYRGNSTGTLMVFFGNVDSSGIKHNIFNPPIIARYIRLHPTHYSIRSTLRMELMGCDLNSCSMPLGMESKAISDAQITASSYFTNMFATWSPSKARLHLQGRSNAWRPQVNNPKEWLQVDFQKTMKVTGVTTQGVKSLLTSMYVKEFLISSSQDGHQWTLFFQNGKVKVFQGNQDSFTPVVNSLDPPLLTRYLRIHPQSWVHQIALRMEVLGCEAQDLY

BDD FVIII mutein S2206C = tested on: T2, BDD FVIII mutein S2206C
T2 sequence: T1 sequence with L986F, S1312C

thrombin (Haematologic Technologies, Essex Junction, Vt.)
thrombin cleavage, SDS-PAGE with silver staining [1]: Thrombin digestion of the muteins and control produced the expected cleavage fragments.
thrombin cleavage, SDS-PAGE with silver staining (BDD FVIII mutein S2206C): Thrombin digestion of the muteins and control produced the expected cleavage fragments.
